Residue numbers refer to the chain shown, from its start.
What was measured:
Experiment in all cases: SPR, KD relative to WT C2;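 note: biacore SPR at 37 °C, anti-C2 mAbs captured on anti-human IgG chips with alanine or serine point mutants of C2 as analyte, KD from 1:1 fit compared with wild-type C2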
[1] = target: T1, human C2 G432A (human, UniProt P06681 21-752)
T1 sequence: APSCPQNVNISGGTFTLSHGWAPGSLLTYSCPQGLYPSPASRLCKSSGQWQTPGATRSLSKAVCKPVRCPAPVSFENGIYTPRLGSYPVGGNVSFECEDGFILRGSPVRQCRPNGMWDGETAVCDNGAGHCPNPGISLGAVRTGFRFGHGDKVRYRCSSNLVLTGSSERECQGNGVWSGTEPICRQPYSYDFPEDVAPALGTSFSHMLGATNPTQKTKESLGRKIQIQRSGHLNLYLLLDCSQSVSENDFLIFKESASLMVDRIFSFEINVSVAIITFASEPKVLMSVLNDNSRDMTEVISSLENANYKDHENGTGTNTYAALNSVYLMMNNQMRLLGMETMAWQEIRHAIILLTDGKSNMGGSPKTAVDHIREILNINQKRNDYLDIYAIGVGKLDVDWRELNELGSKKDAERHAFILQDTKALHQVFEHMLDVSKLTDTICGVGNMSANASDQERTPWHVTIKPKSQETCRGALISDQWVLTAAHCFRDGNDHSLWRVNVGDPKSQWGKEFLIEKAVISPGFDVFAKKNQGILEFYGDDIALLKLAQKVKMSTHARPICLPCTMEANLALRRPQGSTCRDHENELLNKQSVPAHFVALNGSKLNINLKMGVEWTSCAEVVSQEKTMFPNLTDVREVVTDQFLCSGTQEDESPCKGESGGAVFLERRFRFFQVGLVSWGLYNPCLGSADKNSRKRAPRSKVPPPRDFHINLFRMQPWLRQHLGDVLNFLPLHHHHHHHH

[2] = target: T2, human C2 G466A (human, UniProt P06681 21-752)
T2 sequence: T1 sequence with A412G, G446A

[3] = target: T3, human C2 L439A (human, UniProt P06681 21-752)
T3 sequence: T1 sequence with A412G, L419A

[4] = target: T4, human C2 A326S (human, UniProt P06681 21-752)
T4 sequence: T1 sequence with A306S, A412G

B1: RF16-242 (antibody, human IgG4 S228P, lambda, V domains shown)
VH: EVQLLQSGAEVKKPGESLKISCKGSGYSFTSYWIGWVRQMPGKGLEWMGIIYPGDSDTRYSPSFQGQVTISADKSISTAYLQWSSLKASDTAMYYCARRGHYGDYFDYWGQGTLVTVSS
VL: SYELTQPPSVSVSPGQTARITCSGDALPKKYAYWYHQKSGQAPVLVIYEDRRRPSEIPERFSGSSSGTMATLTITGAQVEDEGVYFCYSRDRAGNQRVFGGGTQLTVLG
notes: pH-dependent anti-C2 antibody from a phage display library
Fold diff [1]: 1 fold
Fold diff [2]: 4 fold
Fold diff [3]: 24 fold
Fold diff [4]: 1 fold

— patent US20220332804A1 (CSL INNOVATION, published 2022)
